Molecular target: CD16V-BB-ζ chimeric receptor (human)
Assay: cell-based or functional assay

Question: hu14.18K322A (antibody) was tested. Which 24-hour cytotoxicity against NB1691 cells at 1:8 E:T did it give?
Answer: > 50%

Reference: patent EP3057986B1
